The values that follow come from IntAct's records for PubMed 20150898.

The chains are these.
B1: Actin cytoskeleton-regulatory complex protein SLA1 (Saccharomyces cerevisiae), P32790 (parent)
chain: MTVFLGIYRAVYAYEPQTPEELAIQEDDLLYLLQKSDIDDWWTVKKRVIGSDSEEPVGLVPSTYIEEAPVLKKVRAIYDYEQVQNADEELTFHENDVFDVFDDKDADWLLVKSTVSNEFGFIPGNYVEPENGSTSKQEQAPAAAEAPAATPAAAPASAAVLPTNFLPPPQHNDRARMMQSKEDQAPDEDEEGPPPAMPARPTATTETTDATAAAVRSRTRLSYSDNDNDDEEDDYYYNSNSNNVGNHEYNTEYHSWNVTEIEGRKKKKAKLSIGNNKINFIPQKGTPHEWSIDKLVSYDNEKKHMFLEFVDPYRSLELHTGNTTTCEEIMNIIGEYKGASRDPGLREVEMASKSKKRGIVQYDFMAESQDELTIKSGDKVYILDDKKSKDWWMCQLVDSGKSGLVPAQFIEPVRDKKHTESTASGIIKSIKKNFTKSPSRSRSRSRSKSNANASWKDDELQNDVVGSAAGKRSRKSSLSSHKKNSSATKDFPNPKKSRLWVDRSGTFKVDAEFIGCAKGKIHLHKANGVKIAVAADKLSNEDLAYVEKITGFSLEKFKANDGSSSRGTDSRDSERERRRRLKEQEEKERDRRLKERELYELKKARELLDEERSRLQEKELPPIKPPRPTSTTSVPNTTSVPPAESSNNNNSSNKYDWFEFFLNCGVDVSNCQRYTINFDREQLTEDMMPDINNSMLRTLGLREGDIVRVMKHLDKKFGRENIASIPTNATGNMFSQPDGSLNVATSPETSLPQQLLPQTTSPAQTAPSTSAETDDAWTVKPASKSESNLLSKKSEFTGSMQDLLDLQPLEPKKAAASTPEPNLKDLEPVKTGGTTVPAAPVSSAPVSSAPAPLDPFKTGGNNILPLSTGFVMMPMITGGDMLPMQRTGGFVVPQTTFGMQSQVTGGILPVQKTGNGLIPISNTGGAMMPQTTFGAAATVLPLQKTGGGLIPIATTGGAQFPQTSFNVQGQQQLPTGSILPVQKTANGLISANTGVSMPTVQRTGGTMIPQTSFGVSQQLTGGAMMTQPQNTGSAMMPQTSFNAVPQITGGAMMPQTSFNALPQVTGGAMMPLQRTGGALNTFNTGGAMIPQTSFSSQAQNTGGFRPQSQFGLTLQKTGGIAPLNQNQFTGGAMNTLSTGGVLQQQQPQTMNTFNTGGVMQELQMMTTFNTGGAMQQPQMMNTFNTDGIMQQPQMMNTFNTGGAMQQPQQQALQNQPTGFGFGNGPQQSRQANIFNATASNPFGF

In experiment [1] the parent is B1. To be noted: with clh_yeast CHC1, P22137.
Experiment [2] covers variants of B1. To be noted: with clh_yeast CHC1, P22137. This is another data set of the same source.

Chain of clh_yeast CHC1, P22137 (P22137 whole entry): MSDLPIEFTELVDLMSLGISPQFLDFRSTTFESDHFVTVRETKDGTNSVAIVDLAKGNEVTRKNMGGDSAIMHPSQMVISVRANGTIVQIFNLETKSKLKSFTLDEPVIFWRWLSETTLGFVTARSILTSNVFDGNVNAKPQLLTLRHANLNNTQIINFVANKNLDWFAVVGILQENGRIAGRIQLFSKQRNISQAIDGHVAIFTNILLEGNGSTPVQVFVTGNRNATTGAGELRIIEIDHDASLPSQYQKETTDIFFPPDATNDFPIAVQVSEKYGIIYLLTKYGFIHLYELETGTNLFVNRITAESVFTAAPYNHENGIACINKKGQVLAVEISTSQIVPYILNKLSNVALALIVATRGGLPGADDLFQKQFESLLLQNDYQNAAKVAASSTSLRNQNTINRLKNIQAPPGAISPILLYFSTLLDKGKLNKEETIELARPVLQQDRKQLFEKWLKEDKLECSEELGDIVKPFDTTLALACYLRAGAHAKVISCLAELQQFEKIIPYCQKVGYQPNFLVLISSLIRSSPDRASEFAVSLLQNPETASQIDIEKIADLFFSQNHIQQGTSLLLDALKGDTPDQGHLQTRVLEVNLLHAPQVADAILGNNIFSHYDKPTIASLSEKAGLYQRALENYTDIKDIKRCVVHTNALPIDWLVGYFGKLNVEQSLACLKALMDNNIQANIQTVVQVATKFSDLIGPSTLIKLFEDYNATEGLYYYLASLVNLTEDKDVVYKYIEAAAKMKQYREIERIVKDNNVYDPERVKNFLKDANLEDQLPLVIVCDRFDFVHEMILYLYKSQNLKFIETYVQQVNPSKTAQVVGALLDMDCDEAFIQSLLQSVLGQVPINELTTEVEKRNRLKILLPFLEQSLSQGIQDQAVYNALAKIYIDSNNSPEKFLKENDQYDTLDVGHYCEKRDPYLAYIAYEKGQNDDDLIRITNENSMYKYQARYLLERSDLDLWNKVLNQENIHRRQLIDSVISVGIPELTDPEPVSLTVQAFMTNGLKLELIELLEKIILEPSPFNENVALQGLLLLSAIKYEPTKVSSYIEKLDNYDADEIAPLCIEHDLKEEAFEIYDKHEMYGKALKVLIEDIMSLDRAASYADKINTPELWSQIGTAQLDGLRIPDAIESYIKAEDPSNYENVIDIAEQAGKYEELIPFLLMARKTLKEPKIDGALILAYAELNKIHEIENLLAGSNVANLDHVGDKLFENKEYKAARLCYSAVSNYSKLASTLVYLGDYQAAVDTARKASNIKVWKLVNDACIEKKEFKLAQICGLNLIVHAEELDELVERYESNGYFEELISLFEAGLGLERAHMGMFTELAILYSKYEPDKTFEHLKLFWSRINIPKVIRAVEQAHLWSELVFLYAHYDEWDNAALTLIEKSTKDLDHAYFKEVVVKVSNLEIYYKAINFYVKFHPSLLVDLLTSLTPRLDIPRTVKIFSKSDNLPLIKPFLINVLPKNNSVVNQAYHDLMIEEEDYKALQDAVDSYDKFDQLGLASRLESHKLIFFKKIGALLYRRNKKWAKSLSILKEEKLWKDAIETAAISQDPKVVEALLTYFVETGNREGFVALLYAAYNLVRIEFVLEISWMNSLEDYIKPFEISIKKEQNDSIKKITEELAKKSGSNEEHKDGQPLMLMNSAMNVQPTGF

Regarding L804A, the “effect of a mutation on the interaction” value in the experiment with clh_yeast CHC1, P22137 [1] is reported as “decreasing interaction”; with clh_yeast CHC1, P22137 [2], “disrupting interaction”.

Take D805A: the “effect of a mutation on the interaction” value with clh_yeast CHC1, P22137 [1] is on record as “decreasing interaction”; in the experiment with clh_yeast CHC1, P22137 [2] it was “disrupting interaction”.

In the case of L803A, the “effect of a mutation on the interaction” value with clh_yeast CHC1, P22137 [1] is given as “decreasing interaction”; with clh_yeast CHC1, P22137 [2] it was “disrupting interaction”.
